Assay results taken from patent US20240360246A1 (BIO Y A S, published 2024).

Tests used:
[1] = molecular target: T1, Human YKL-40 also known as Chitinase-3-like protein 1 (CHI3L1) (human, UniProt P36222 22-383); assay: dot blot
T1 construct: Secreted protein purified from MG63 supernatant or purchased (Catalogue #2599-CH); also called hYKL-40
Protocol: A dot blot was performed by adding 0.4 μg and 0.2 μg of hYKL-40, 0.4 μg and 0.2 μg mYKL-40, 0.4 μg and 0.2 μg of calmodulin (negative control) and PBS (negative control) onto the nitrocellulose membrane. The membrane was incubated with B3 (SEQ ID NO: 3)-hFc.
A dot blot was performed by adding 0.4 μg and 0.2 μg of hYKL-40, 0.4 μg and 0.2 μg mYKL-40, 0.4 μg and 0.2 μg of calmodulin (negative control) and PBS (negative control) onto the nitrocellulose membrane. The area that the solution penetrates was minimized. The membrane was dried for 1 h at room temperature (RT). Afterwards the membrane was blocked in PBS with 0.1% Tween overnight at 4° C. followed by three washing steps with PBS with 0.1% Tween. The membrane was incubated with B3-hFc (1 μg/mL) in blocking buffer for 2 h at RT in a shaker followed by three washing steps with PBS with 0.1% Tween. The membrane was incubated with HRP anti-human secondary antibody for 2 hours at RT in shaker followed by three washing steps with PBS with 0.1% Tween. The western blot was developed with western blotting detection reagent.

[2] = molecular target: T1, Human YKL-40 also known as …; assay: western blot
Protocol: For the western blot 0.5 μg hYKL-40 or mYKL-40 were loaded onto a 4-20% SurePAGE, Bis-TRIS gel. The gel was run at 120V for 70 min and afterwards the samples were transferred to a nitrocellulose membrane using iBlot system. The membrane was incubated with 1 μg/ml primary antibody B10 (SEQ ID NO: 4)-hFc.

[3] = molecular target: T1, Human YKL-40 also known as …; assay: phage ELISA
Murine YKL-40 = molecular target: T2, Murine YKL-40 (mouse, UniProt Q61362 30-389); assay: ELISA
T2 construct: Purchased (Catalogue #2649-CH); also called mYKL-40; mouse YKL-40

[4] = molecular target: T1, Human YKL-40 also known as …; assay: ELISA
[5] = molecular target: T1, Human YKL-40 also known as …; assay: ELISA, plate coated with 2.5 µg/ml hYKL-40
Protocol: A 96-well ELISA plate were coated with 2.5 μg/ml hYKL-40 or 2.5 μg/ml calmodulin as control. 0.25 μg/ml (8), […] (7), 1 μg/ml (6), 2.5 μg/ml (5), 6.25 μg/ml (4), 12.5 μg/ml (3), 15 μg/ml (2) and 20 μg/ml (1) of the antibodies B3 (SEQ ID NO: 3)-mFc or B10 (SEQ ID NO: 4)-mFc were added.

T1 sequence (P36222 22-383 limits assumed): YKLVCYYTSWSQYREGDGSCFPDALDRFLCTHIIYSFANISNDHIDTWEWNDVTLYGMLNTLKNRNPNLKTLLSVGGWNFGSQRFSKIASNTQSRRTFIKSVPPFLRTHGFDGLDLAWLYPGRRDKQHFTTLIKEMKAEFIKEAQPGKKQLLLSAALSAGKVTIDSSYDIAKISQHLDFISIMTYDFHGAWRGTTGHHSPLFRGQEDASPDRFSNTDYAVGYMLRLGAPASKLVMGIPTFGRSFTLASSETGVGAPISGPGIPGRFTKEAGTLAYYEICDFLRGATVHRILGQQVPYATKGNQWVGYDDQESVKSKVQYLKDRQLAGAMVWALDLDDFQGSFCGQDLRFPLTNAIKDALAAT
T2 sequence (Q61362 30-389 limits assumed): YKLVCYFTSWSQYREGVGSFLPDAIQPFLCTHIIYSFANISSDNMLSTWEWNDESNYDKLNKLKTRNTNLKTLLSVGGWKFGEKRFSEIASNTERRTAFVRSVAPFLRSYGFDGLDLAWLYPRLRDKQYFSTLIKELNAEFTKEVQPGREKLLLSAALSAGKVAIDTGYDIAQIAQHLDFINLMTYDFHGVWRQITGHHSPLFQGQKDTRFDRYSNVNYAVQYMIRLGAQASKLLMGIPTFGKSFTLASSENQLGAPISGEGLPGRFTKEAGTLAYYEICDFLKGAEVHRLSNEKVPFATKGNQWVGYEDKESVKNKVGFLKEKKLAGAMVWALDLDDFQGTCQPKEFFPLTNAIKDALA

B1: B3 (SEQ ID NO: 3) fused to a human Fc (hFc) (Fc fusion)
chain: MAEVQLLESGGGLVQPGGSLRLSCAASGFRDSDEDMGWVRQAPGKGLEWVSSISAPGGSTYYADSVKGRFTISRDNSKNTLYLQMNSLRAEDTAVYYCASHYNYGHWFDYWGQGTLVTVSSAAVECPPCPAPPVAGPSVFLFPPKPKDTLMISRTPEVTCVVVDVSHEDPEVQFNWYVDGMEVHNAKTKPREEQFNSTFRVVSVLTVVHQDWLNGKEYKCKVSNKGLPAPIEKTISKTKGQPREPQVYTLPPSREEMTKNQVSLTCLVKGFYPSDIAVEWESNGQPENNYKTTPPMLDSDGSFFLYSKLTVDKSRWQQGNVFSCSVMHEALHNHYTQKSLSLSPGK
notes: VH domain fused to human Fc; no linker stated; also called B3-hFc
B1: binds [1].

B2: B10 (SEQ ID NO: 4) fused to a human Fc (Fc fusion)
chain: MAEVQLLESGGGLVQPGGSLRLSCAASGFRDSDEDMGWVRQAPGKGLEWVSSISADSGSTYYADSVKGRFTISRDNSKNTLYLQMNSLRAEDTAVYYCASDYNYWYWFDYWGQGTLVTVSSAAVECPPCPAPPVAGPSVFLFPPKPKDTLMISRTPEVTCVVVDVSHEDPEVQFNWYVDGMEVHNAKTKPREEQFNSTFRVVSVLTVVHQDWLNGKEYKCKVSNKGLPAPIEKTISKTKGQPREPQVYTLPPSREEMTKNQVSLTCLVKGFYPSDIAVEWESNGQPENNYKTTPPMLDSDGSFFLYSKLTVDKSRWQQGNVFSCSVMHEALHNHYTQKSLSLSPGK
notes: VH domain fused to human Fc; no linker stated; also called B10-hFc
B2: binds [2].

B3: B3 predator (phage antibody clone B3) (antibody, V domains shown)
VH: EVQLLESGGGLVQPGGSLRLSCAASGFRDSDEDMGWVRQAPGKGLEWVSSISAPGGSTYYADSVKGRFTISRDNSKNTLYLQMNSLRAEDTAVYYCASHYNYGHWFDYWGQGTLVTVSS
B3: binds [3].

B4: B10 predator (phage antibody clone B10) (antibody, V domains shown)
VH: EVQLLESGGGLVQPGGSLRLSCAASGFRDSDEDMGWVRQAPGKGLEWVSSISADSGSTYYADSVKGRFTISRDNSKNTLYLQMNSLRAEDTAVYYCASDYNYWYWFDYWGQGTLVTVSS
B4: binds [3].

B5: H7 antibody comprising a VL of SEQ ID NO: 14 and a VH of SEQ ID NO: 15 fused to human Fc regions (antibody, human IgG1, kappa, V domains shown)
VH: EVQLQQSGAELVKPGASVKLSCTASGFNIKDTYMHWVKQRPEQGLEWIGRIDPANGNTIYASKFQGKATITRDTSSNTAYMQLSSLTSGDTAVYYCTRGVYYYGGSFYAMDYWGQGTSVTVSS
VL: DIQMTQSPASLSASVGETVTITCGASENIYGALNWYQRKQGKSPQLLIYGATTLADGMSSRFSGSGSGRQYSLKISSLHPDDVATYYCQNVLTTPWTFGGGTKLEIKT
notes: Chimeric mouse/human antibody; also called H7-hFc
B5: binds (Murine YKL-40); binds [4].

B6: B3 (SEQ ID NO: 3) fused to murine Fc (mFc) (Fc fusion)
chain: MAEVQLLESGGGLVQPGGSLRLSCAASGFRDSDEDMGWVRQAPGKGLEWVSSISAPGGSTYYADSVKGRFTISRDNSKNTLYLQMNSLRAEDTAVYYCASHYNYGHWFDYWGQGTLVTVSSAARSPPLKECPPCAAPDLLGGPSVFIFPPKIKDVLMISLSPMVTCVVVDVSEDDPDVQISWFVNNVEVHTAQTQTHREDYNSTLRVVSALPIQHQDWMSGKEFKCKVNNRALPSPIEKTISKPRGPVRAPQVYVLPPPAEEMTKKEFSLTCMITGFLPAEIAVDWTSNGRTEQNYKNTATVLDSDGSYFMYSKLRVQKSTWERGSLFACSVVHEGLHNHLTTKTISRSLGK
notes: VH domain fused to murine Fc; no linker stated; also called B3-mFc; B3 mouse
B6: binds [5].

B7: B10 (SEQ ID NO: 4) fused to mFc (Fc fusion)
chain: MAEVQLLESGGGLVQPGGSLRLSCAASGFRDSDEDMGWVRQAPGKGLEWVSSISADSGSTYYADSVKGRFTISRDNSKNTLYLQMNSLRAEDTAVYYCASDYNYWYWFDYWGQGTLVTVSSAARSPPLKECPPCAAPDLLGGPSVFIFPPKIKDVLMISLSPMVTCVVVDVSEDDPDVQISWFVNNVEVHTAQTQTHREDYNSTLRVVSALPIQHQDWMSGKEFKCKVNNRALPSPIEKTISKPRGPVRAPQVYVLPPPAEEMTKKEFSLTCMITGFLPAEIAVDWTSNGRTEQNYKNTATVLDSDGSYFMYSKLRVQKSTWERGSLFACSVVHEGLHNHLTTKTISRSLGK
notes: VH domain fused to murine Fc; no linker stated; also called B10-mFc; B10 mouse
B7: binds [5].
